Results reported in patent publication US20250179180A1 (TENEOBIO, published 2025).

Biological target: T1, human CD3 (human, UniProt P07766 23-207; P04234 22-171)
T1 construct: also called CD3 on human T cells
Assay: flow cytometry on primary human T cells

T1 sequence (P07766 23-207 limits assumed, chain 1 of 2): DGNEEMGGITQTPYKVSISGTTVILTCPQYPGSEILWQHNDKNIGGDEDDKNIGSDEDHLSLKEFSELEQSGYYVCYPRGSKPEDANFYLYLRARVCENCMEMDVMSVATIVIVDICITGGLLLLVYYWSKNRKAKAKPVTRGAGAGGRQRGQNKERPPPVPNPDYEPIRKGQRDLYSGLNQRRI
T1 sequence (P04234 22-171 limits assumed, chain 2 of 2): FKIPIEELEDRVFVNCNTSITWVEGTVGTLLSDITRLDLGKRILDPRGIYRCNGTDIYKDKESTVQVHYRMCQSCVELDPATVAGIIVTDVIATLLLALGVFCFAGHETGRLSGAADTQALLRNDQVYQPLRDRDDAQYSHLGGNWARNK

Binder | binding result
mAb CD3 F2B (antibody, V domains shown, also called F2B antibody; mAb F2B) VH: EVQLVESGGGLVQPGRSLRLSCAASGFTFDDYAMHWVRQAPGKGLEWVSGISWNSGSIGYADSVKGRFTISRDNAKNSLYLQMNSLRAEDTALYYCAKDSRGYGDYRLGGAYWGQGTLVTVSS VL: not shown | binds
SEQ ID NO 5 (antibody, V domains shown, also called family 2 anti-CD3 FlicAb) VH: EVQLVESGGGLVQPGRSLRLSCAASGFTFDDYAMHWVRQAPGKGLEWVSGISWNSGSIGYADSVKGRFTISRDNAKNSLYLQMNSLRAEDTALYYCAKDSRGYGDYSLGGAYWGQGTLVTVSS VL: not shown | binds
SEQ ID NO 2 (antibody, V domains shown, also called family 2 anti-CD3 FlicAb) VH: EVQLVESGGGLVKPGGSLRLSCAASGFTFDDYAMHWVRQAPGKGLEWVSGISWNSGSIGYADSVKGRFTISRDNAKNSLYLQMNSLRAEDTALYYCAKDSRGYGDYRLGGAYWGQGTLVTVSS VL: not shown | binds
SEQ ID NO 18 (antibody, V domains shown, also called family 2 anti-CD3 FlicAb) VH: EVQLVESGGGLVQPGRSLRLSCAASGFTFDDYAMHWVRQAPGKGLEWVSGISWNSGSIGYADSVKGRFTISRDNAKNSLYLQMNSLRPEDTALYYCAKDSRGYGDYRLGGAYWGQGTLVTVSS VL: not shown | binds
SEQ ID NO 6 (antibody, V domains shown, also called family 2 anti-CD3 FlicAb) VH: EVQLVESGGGLVQPGRSLRLSCAASGFTFANYAMHWVRQAPGKGLEWVSGISWNSGSIDYADSVKGRFTISRDNAKNSLYLQMNSLRAEDTALYYCAKDSRGYGDYSRGGAYWGQGTLVTVSS VL: not shown | binds
SEQ ID NO 4 (antibody, V domains shown, also called family 2 anti-CD3 FlicAb) VH: EVQLVESGGGLVQPGRSLRLSCAASGFTFDDYAMHWVRQAPGKGLEWVSGISWNSGSIGYADSVKGRFTISRDNAKNSLYLQMNSLRPEDTALYYCAKDSRGYGDYSLGGAYWGQGTLVTVSS VL: not shown | binds
SEQ ID NO 11 (antibody, V domains shown, also called family 2 anti-CD3 FlicAb) VH: EVQLVESGGGLVQPGRSLRLSCAASGFTFDDYAMHWVRQAPGKGLEWVSGISWNSGSIGYADSVKGRFTISRDNAKNSLYLQMNSLRAEDTALYYCAKDSRGYGDYSRGGAYWGQGTLVTVSS VL: not shown | binds
SEQ ID NO 13 (antibody, V domains shown, also called family 2 anti-CD3 FlicAb) VH: EVQLVESGGGLVQPGRSLRLSCAASGFTFHNYAMHWVRQAPGKGLEWVSGISWNSGSIGYADSVKGRFTISRDNAKNSLYLQMNSLRAEDTALYYCAKDSRGYGDYSLGGAYWGQGTLVTVSS VL: not shown | binds
SEQ ID NO 3 (antibody, V domains shown, also called family 2 anti-CD3 FlicAb) VH: EVQLVESGGGLVQPGRSLRLSCAASGFTFDDYAMHWVRQAPGKGLEWVSGISWNSGSIGYADSVKGRFTISRDNAKKSLYLQMNSLRAEDTALYYCAKDSRGYGDYSRGGAYWGQGTLVTVSS VL: not shown | binds
SEQ ID NO 10 (antibody, V domains shown, also called family 2 anti-CD3 FlicAb) VH: EVQLVESGGGLVQPGRSLRLSCAASGFTFDNYAMHWVRQAPGKGLEWVSGISWNSGSIGYADSVKGRFTISRDNAKNSLYLQMNSLRAEDTALYYCAKDSRGYGDYSRGGAYWGQGTLVTVSS VL: not shown | binds
SEQ ID NO 8 (antibody, V domains shown, also called family 2 anti-CD3 FlicAb) VH: EVQLVESGGGLVQPGGSLRLSCAASGFTFADYAMHWVRQAPGKGLEWVSGISWNSGSIGYADSVKGRFTISRDNAKNSLYLQMNSLRAEDTALYYCAKDSRGYGDYSRGGAYWGQGTLVTVSS VL: not shown | binds
SEQ ID NO 7 (antibody, V domains shown, also called family 2 anti-CD3 FlicAb) VH: EVQLVESGGGLVQPGRSLRLSCAASGFTFNNYAMHWVRQAPGKGLEWVSGISWNSGSIGYADSVKGRFTISRDNAKNSLYLQMNSLRGEDTALYYCAKDSRGYGDYSRGGAYWGQGTLVTVSS VL: not shown | binds
SEQ ID NO 15 (antibody, V domains shown, also called family 2 anti-CD3 FlicAb) VH: EVQLVESGGGLVQPGRSLRLSCAASGFTFDNYAMHWVRQAPGKGLEWVSGISWNSGSIGYADSVKGRFTISRDNAKKSLYLQMNSLRAEDTALYYCAKDSRGYGDYSLGGAYWGQGTLVTVSS VL: not shown | binds
SEQ ID NO 16 (antibody, V domains shown, also called family 2 anti-CD3 FlicAb) VH: EVQLVESGGGLVQPGRSLRLSCAASGFTFDDYAMHWVRQAPGKGLEWVSGISWNSGSIGYADSVKGRFTISRDNAKKSLYLQMNSLRAEDTALYYCAKDSRGYGDYRLGGAYWGQGTLVTVSS VL: not shown | binds
SEQ ID NO 17 (antibody, V domains shown, also called family 2 anti-CD3 FlicAb) VH: EVQLVESGGGLVQPGRSLRLSCEASGFTFDDYAMHWVRQAPGKGLEWVSGISWNSGSIGYADSVKGRFTISRDNAKNSLYLQMNSLRAEDTALYYCAKDSRGYGDYRLGGAYWGQGTLVTVSS VL: not shown | binds
SEQ ID NO 9 (antibody, V domains shown, also called family 2 anti-CD3 FlicAb) VH: EVQLVESGGGLVQPGRSLRLSCAASGFTFDNYAMHWVRQAPGKGLEWVSGISWNSGSIGYADSVKGRFTISRDNAKKSLYLQMNSLRAEDTALYYCAKDSRGYGDYSRGGAYWGQGTLVTVSS VL: not shown | binds
SEQ ID NO 12 (antibody, V domains shown, also called family 2 anti-CD3 FlicAb) VH: EVQLVESGGGLVQPGRSLRLSCAASGFTFDDYAMHWVRQAPGKGLEWVSGISWNSGSIGYADSVKGRFTISRDNAKNSLYLQMNSLRPEDTALYYCAKDSRGYGSYSRGGAYWGQGTLVTVSS VL: not shown | binds
